{"source": "patent US20130171217A1", "about": "“ENZYMATIC PERACID GENERATION FOR USE IN SKIN CARE PRODUCTS” (E I DU PONT DE NEMOURS AND COMPANY, priority 2010, published 2013)", "molecules": {"B1": {"name": "C277S-HC263: C277S variant of Thermotoga maritima perhydrolase fused via a flexible linker to hair-binding domain HC263 (protein)", "chain": "MAFFDLPLEELKKYRPERYEEKDFDEFWEETLAESEKFPLDPVFERMESHLKTVEAYDVTFSGYRGQRIKGWLLVPKLEEEKLPCVVQYIGYNGGRGFPHDWLFWPSMGYICFVMDTRGQGSGWLKGDTPDYPEGPVDPQYPGFMTRGILDPRTYYYRRVFTDAVRAVEAAASFPQVDQERIVIAGGSQGGGIALAVSALSKKAKALLCDVPFLCHFRRAVQLVDTHPYAEITNFLKTHRDKEEIVFRTLSYFDGVNFAARAKIPALFSVGLMDNISPPSTVFAAYNYYAGPKEIRIYPYNNHEGGGSFQAVEQVKFLKKLFEKGGPGSGGAGSPGSAGGPGSPSAQSQLPDKHSGLHERAPQRYGPEPEPEPEPIPEPPKEAPVVIEKPKPKPKPKPKPPAHDHKNQKETHQRHAAGSGGGGSPHHHHHH"}}, "key": {"[1]": {"assay": "Two-step treatment of hair tresses, tress tensile strength", "description": "Medium brown hair was used in these examples. Stock hair swatches were custom made by International Hair Importers (Glendale, N.Y.). Each swatch had 1500 mg of 50% reversed hair, soft glued in the middle with glue thickness of 1 mm and width of 2 cm.\nTest-hair-sample consisted of a hair bundle of approximately 50 mg hair of 4 cm length, held together by a 1 mm thick, 2 mm wide and 5 mm long glue strip. A sheet of BYTAC® (TYPE VF-81, Saint-Gobain Performance Plastics, Wayne, N.J.) was attached to a polystyrene cover-plate, providing a TEFLON®-coated test-surface for mounting and treatment of hair. A strip of double-sided scotch tape was applied on the BYTAC® surface, closer to the top edge of the test plate. The glued side of the test-hair-sample was pressed down on the exposed side of the tape, making sure that the unglued hair strands are completely clear of the tape. The glued parts of the tress and exposed double-sided tape surface were covered with a strip of clear single-sided tape. Although the method is described for a single test-hair-tress, 4 tresses were used for each test condition and were placed side-by-side during the entire treatment.\nThe test tress was wetted by tap water and the excess water was absorbed with a paper towel. The calculated volume of the enzyme formulation was applied and was worked in gently and evenly into hair strands with gloved fingers for ˜30 seconds and let the formulation soak in for the specified deposition time. The tress was then rinsed with tap water agitated through a peristaltic pump for 20 seconds, to completely remove the surfactant.\nExcess water was removed from the wetted tress from the previous step by absorption on a paper towel. The requisite volumes of the substrates (H2O2 and triacetin (TA)) were applied onto the test-tress. The mixture was rubbed into the hair strand firmly and evenly, with gloved finger for ˜1 min. The tress was left semi-covered for the specified treatment time.\nTest-hair was washed with a diluted surfactant solution by rubbing the surfactant into hair with enough vigor to foam, for one minute to remove all traced of oils and residues arising during tress preparation or from previous cycles. Hair was rinsed thoroughly with tap water, agitated through a peristaltic pump for 35 seconds, while gently opening tresses with gloved fingers to ascertain that all adherents (surfactant or moisturizer) are dislodged. Excess moisture was absorbed by pressing down the paper towel over the tress. This would mark the end of one cycle. Treatment cycles were repeated starting from the enzyme-deposition step until the desired number of cycles was reached.\nTwo samples from each experiment were subjected to Tensile assay as described in Example 23, to determine the extent of hair-weakening.\nThe following experiments followed the general method of treatment disclosed in Example 25. Solutions were made in 5% TWEEN®-20 surfactant in 50 mM citrate buffer at pH 6. […] H2O2 and triacetin, formulations were made according to Example 24, in 20% LUBRIDERM® lotion in 50 mM citrate buffer at pH 6. After application of the reagents, the treatment was allowed to continue for 24 hr, as in daily application. TWEEN®-20 (5% in 50 mM citrate buffer at pH 6) was used for the final surfactant wash. The treatment was repeated for 15 additional cycles, 16 days in all.\nThe following experiments followed the general method of treatment disclosed in Example 26, except that after application of the reagents, the treatment was allowed to continue for shorter times per cycle rather than 24 hours per cycle.\nEnzyme solutions were made in 0.5% or 5% TWEEN®-20 surfactant in 50 mM citrate buffer at pH 6. […] H2O2 and triacetin, formulations were made according to Example 24, in 20% LUBRIDERM® lotion (Johnson & Johnson, New Brunswick, N.J.) in 50 mM citrate buffer at pH 6. After application of 400 μL each of the reagents, the treatment was allowed to continue for 20-40 min. […]"}, "[2]": {"assay": "Retention of perhydrolase on hair detected by hydrolase activity", "format": "binding", "description": "For hair binding experiments brown hair tresses (International Hair Importers and Products, Glensdale N.Y.) were used. The hair was washed with 2% SLES, rinsed extensively with deionized water and air dried.\nAround 20 mg of 1 cm brown hair fragments was added in a 1.8-mL microfuge tube. Hydrolase assay buffer (1.2 mL) as added to the hair followed by the addition of the perhydrolase enzymes to the solution. The enzymes were allowed to bind the hair for 30 min with gentle agitation (24 rpm) on an Adams Nutator (model 1105, Becton Dickinson, Franklin Lakes, N.J.). No enzyme controls, with hair and without hair, were included in the binding experiment to account for non-enzymatic hydrolysis of the pNPA hydrolase reagent. After the binding step, a 1.0-mL aliquot of the binding buffer was transferred to a new tube to quantitate the amount of unbound enzyme. Additional binding buffer was removed and the hair fragments were washed 4 times with 1 mL of 1% TWEEN®-20 in hydrolase buffer, followed by 2 washes with 1 mL each in hydrolase buffer. The hair fragments were then resuspended in 1 mL of hydrolase assay and the hydrolase activity that remained bound to the hair was measured. The C277S (“PAH”) variant of Thermotoga maritima perhydrolase (SEQ ID NO: 293) was used as a control for an un-targeted perhydrolase."}, "[3]": {"assay": "PAA generation with different perhydrolases and substrates, HPLC Karst assay", "format": "biochemical", "description": "HC1121 is a CE-7 class carbohydrate esterase from Thermotoga maritima (C2775-HC263; SEQ ID NO: 288), and HC1169 is an aryl esterase from M. smegmatis (ArE-HC263; SEQ ID NO: 323). Both enzymes were tested for their perhydrolytic activity with substrates triacetin or propylene glycol diacetate (PGDA, Aldrich 528072) and hydrogen peroxide between pH 5 and pH 7.2. Enzyme free reactions for some reaction conditions were run to determine the non-enzymatic generation of peracetic acid as well. At the end of reaction, the reaction was quenched by acidification 10 or 25 fold with 100 mM H3PO4. The quenched samples were filtered using a NANOSEP® MF centrifugal device (30K Molecular Weight Cutoff (MWCO), Pall Life Sciences, Ann Arbor, Mich., P/N OD030C35) by centrifugation for 6 min at 12,000 rpm. The filtrates were assayed by HPLC Karst assay in duplicates to determine the amount of peracetic acid (PAA) generated at those reaction conditions."}}}
{"molecule": "B1", "values": [{"measurement": "TS", "setting": "[1]; 750 μg/mL (E/H 3), 0.25 M H2O2, 0.25 M TA, 20 min/cycle, 16 cycles", "result": 2.64, "unit": "N/mgH"}, {"measurement": "TS", "setting": "[1]; 750 μg/mL (E/H 3), 0.25 M H2O2, 0.25 M TA, 24 hr/cycle, 16 cycles", "result": 1.51, "unit": "N/mgH"}, {"measurement": "TS", "setting": "[1]; 750 μg/mL (E/H 3), 0.5 M H2O2, 0.5 M TA, 20 min/cycle, 16 cycles", "result": 2.09, "unit": "N/mgH"}, {"measurement": "TS", "setting": "[1]; 750 μg/mL (E/H 3), 0.5 M H2O2, 0.5 M TA, 24 hr/cycle, 16 cycles", "result": 0.25, "unit": "N/mgH"}, {"measurement": "TS", "setting": "[1]; 750 μg/mL (E/H 3), 0.75 M H2O2, 1 M TA, 40 min/cycle", "result": 2.49, "unit": "N/mgH"}, {"measurement": "Predicted TS for 24 h/cycle", "setting": "[1]; 750 μg/mL, from 40 min/cycle", "result": "1.00 ^ N/mgH"}, {"measurement": "TS", "setting": "[1]; 1500 μg/mL (E/H 5), 0.75 M H2O2, 1 M TA, 20 min/cycle", "result": 2.47, "unit": "N/mgH"}, {"measurement": "TS", "setting": "[1]; 1500 μg/mL (E/H 6), deposition 5 min, 0.5 M H2O2, 1 M TA, 2 hr/cycle", "result": 1.62, "unit": "N/mgH"}, {"measurement": "Predicted TS for 24 h/cycle", "setting": "[1]; 1500 μg/mL, from 20 min/cycle", "result": "0.97 ^ N/mgH"}, {"measurement": "TS", "setting": "[1]; 1750 μg/mL (E/H 7), 0.25 M H2O2, 0.25 M TA, 20 min/cycle, 16 cycles", "result": 2.33, "unit": "N/mgH"}, {"measurement": "TS", "setting": "[1]; 1750 μg/mL (E/H 7), 0.25 M H2O2, 0.25 M TA, 24 hr/cycle, 16 cycles", "result": 0.77, "unit": "N/mgH"}, {"measurement": "TS", "setting": "[1]; 1750 μg/mL (E/H 7), 0.5 M H2O2, 0.5 M TA, 20 min/cycle, 16 cycles", "result": 1.90, "unit": "N/mgH"}, {"measurement": "TS", "setting": "[1]; 1750 μg/mL (E/H 7), 0.5 M H2O2, 0.5 M TA, 24 hr/cycle, 16 cycles", "result": 0.14, "unit": "N/mgH"}, {"measurement": "TS", "setting": "[1]; 1750 μg/mL (E/H 7), 0.75 M H2O2, 1 M TA, 40 min/cycle", "result": 1.65, "unit": "N/mgH"}, {"measurement": "Predicted TS for 24 h/cycle", "setting": "[1]; 1750 μg/mL, from 40 min/cycle, (d) predicted disintegration of hair", "result": "−0.13(d) N/mgH"}, {"measurement": "TS", "setting": "[1]; 2500 μg/mL (E/H 10), 0.75 M H2O2, 1 M TA, 20 min/cycle", "result": 1.73, "unit": "N/mgH"}, {"measurement": "TS", "setting": "[1]; 2500 μg/mL (E/H 10), 0.75 M H2O2, 1 M TA, 40 min/cycle", "result": 1.67, "unit": "N/mgH"}, {"measurement": "TS", "setting": "[1]; 2500 μg/mL (E/H 10), 20 min/cycle, 1 cycle", "result": 3.44, "unit": "N/mgH"}, {"measurement": "TS", "setting": "[1]; 2500 μg/mL, 4 cycles", "result": 3.13, "unit": "N/mgH"}, {"measurement": "TS", "setting": "[1]; 2500 μg/mL, 8 cycles", "result": 2.34, "unit": "N/mgH"}, {"measurement": "TS", "setting": "[1]; 2500 μg/mL, 12 cycles", "result": 1.66, "unit": "N/mgH"}, {"measurement": "TS", "setting": "[1]; 2500 μg/mL, 16 cycles", "result": 0.95, "unit": "N/mgH"}, {"measurement": "Predicted TS for 24 h/cycle", "setting": "[1]; 2500 μg/mL, from 20 min/cycle, (d) predicted disintegration of hair in 16 × 24 h/cycle", "result": "−0.02(d) N/mgH"}, {"measurement": "Predicted TS for 24 h/cycle", "setting": "[1]; 2500 μg/mL, from 40 min/cycle, (d) predicted disintegration of hair", "result": "−0.10(d) N/mgH"}, {"measurement": "Activity in the first TWEEN®-20 wash", "setting": "[2]; hydrolase activity, 1% TWEEN®-20", "result": 9, "unit": "%"}, {"measurement": "Activity retained on hair after 4 TWEEN® 20 washes", "setting": "[2]; hydrolase activity, 4 washes 1% TWEEN®-20 and 2 buffer washes", "result": 54, "unit": "%"}, {"measurement": "Activity unbound", "setting": "[2]; hydrolase activity, ~20 mg hair, binding 30 min", "result": 52, "unit": "%"}, {"measurement": "100% activity (hydrolase activity added to the tube)", "setting": "[2]; tube containing ~20 mg of hair, not subjected to washes", "result": 53, "unit": "µmol/min"}, {"measurement": "PAA", "setting": "[3]; 10 μg/mL enzyme, 250 mM triacetin, 100 mM H2O2, 20% LUBRIDERM® in pH 7.2, 100 mM phosphate buffer, 60 min", "result": 4451, "unit": "ppm"}, {"measurement": "PAA", "setting": "[3]; 50 μg/mL enzyme, 100 mM triacetin, 250 mM H2O2, pH 5, 50 mM citrate buffer, 5 min", "result": 277, "unit": "ppm"}, {"measurement": "PAA", "setting": "[3]; 50 μg/mL enzyme, 100 mM triacetin, 250 mM H2O2, pH 5.6, 50 mM citrate buffer, 5 min", "result": 1222, "unit": "ppm"}, {"measurement": "PAA", "setting": "[3]; 50 μg/mL enzyme, 100 mM triacetin, 250 mM H2O2, pH 6, 50 mM citrate buffer, 5 min", "result": 2350, "unit": "ppm"}, {"measurement": "PAA", "setting": "[3]; 50 μg/mL enzyme, 100 mM triacetin, 250 mM H2O2, pH 6.6, 50 mM citrate-phosphate buffer, 5 min", "result": 4067, "unit": "ppm"}, {"measurement": "PAA", "setting": "[3]; 50 μg/mL enzyme, 100 mM triacetin, 250 mM H2O2, pH 7, 50 mM pyrophosphate buffer, 5 min", "result": 4832, "unit": "ppm"}]}
